Test results: US20060019915A1, “Method to modulate the immune system with a novel guanine nucleotide exchange factor” (priority 2004, published 2006)

Key:
Rac1 = target: T1, Rac1 (Homo sapiens, UniProt P63000); assay: In vitro GDP release assay (filter-binding) on Rac1; type: biochemical; settings: for dissociation of [3H]GDP from Rac1 (GEF activity): purified GST-IBP fusion protein, 4 pmol, [3H]GDP-loaded GST-Rac1
T1 construct: purchased Calbiochem-Novabiochem; host or cells: bacteria
Method: A-C, stimulation of GDP dissociation from Rho GTPases by wild-type or mutant IBP proteins. [^3H]GDP-loaded Rac1 (A), Cdc42 (B), or RhoA (C) was incubated with GST alone or with either wild-type or mutant GST-IBP fusion proteins, as indicated. The exchange reactions were stopped at the indicated time points, and the amount of [^3H]GDP remaining bound to the GTPases was then measured by filtering the quenched reaction samples over nitrocellulose membranes followed by scintillation counting of the membrane-bound radioactivity. The percentage of [^3H]GDP remaining bound at each time point was evaluated relative to the amount of radioactivity remaining at time 0 of the respective reaction, which was set to 100% in each experiment. The results shown are representative of at least three independent assays. D, regulation of IBP GEF activity by Lck and PI(3,4,5)P3. [^3H]GDP-loaded Rac1 was incubated with Lck-phosphorylated wild-type HA-IBP (IBP+Lck) in the presence or absence of PI(3,4,5)P3 (1 μM) for 0 or 40 min. Reactions without IBP (Lck and Lck^+ PI(3,4,5)P3) were simultaneously carried out as control. The exchange reactions were then stopped, and the amount of [^3H]GDP remaining bound to Rac1 was measured by filter-binding method as described for A-C. The percentage of [^3H]GDP remaining bound after incubation for 40 min was evaluated relative to the amount of radioactivity remaining at time 0 of the respective reaction, which was set to 100% in each experiment. The results shown are representative of at least three independent assays.
The in vitro GDP release assays were carried out by filter-binding method as described previously (28-31). To prepare [3H]GDP-loaded GTPases, 40 pmol of bacterially expressed and purified GST-Rac1, GST-Cdc42, or His-RhoA (Calbiochem-Novabiochem) was incubated with 1 μM [3H]GDP in 100 μl of a binding buffer (10 mM HEPES, pH 7.5, 100 mM NaCl, 5 mM MgCl2, 1 mM EGTA, 1 mM dithiothreitol, 50 μg/ml bovine serum albumin) for 60 min at 30° C. The nucleotide exchange reaction was initiated by adding 100 μM nonradioactive GTP and 4 pmol of purified GST alone or GST-IBP fusion proteins (or when appropriate, 4 pmol of purified wild-type HA-IBP either non-phosphorylated or in vitro phosphorylated by purified Lck and cold ATP) to the [3H]GDP-loaded GTPase and then equally splitting and incubating the reaction mixture for the indicated time periods at room temperature. […] The amount of [3H]GDP remaining bound to the GTPases was determined by filtering the quenched reaction samples over nitrocellulose membranes followed by extensive washing of the filters and then quantification of the membrane-bound radioactivity by scintillation counting.

Cdc42 = target: T2, Cdc42 (Homo sapiens, UniProt P60953); assay: In vitro GDP release assay (filter-binding) on Cdc42; type: biochemical; settings: purified GST-IBP fusion protein, 4 pmol; [3H]GDP-loaded GST-Cdc42
T2 construct: purchased Calbiochem-Novabiochem; host or cells: bacteria
T2 sequence (P60953 whole entry, species assumed, the tested form may be a part): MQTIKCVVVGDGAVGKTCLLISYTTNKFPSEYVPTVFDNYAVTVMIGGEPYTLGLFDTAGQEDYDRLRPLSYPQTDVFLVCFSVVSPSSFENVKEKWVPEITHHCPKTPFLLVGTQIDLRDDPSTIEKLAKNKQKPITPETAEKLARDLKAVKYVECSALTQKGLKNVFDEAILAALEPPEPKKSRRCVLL
Method: A-C, stimulation of GDP dissociation from Rho GTPases by wild-type or mutant IBP proteins. [^3H]GDP-loaded Rac1 (A), Cdc42 (B), or RhoA (C) was incubated with GST alone or with either wild-type or mutant GST-IBP fusion proteins, as indicated. The exchange reactions were stopped at the indicated time points, and the amount of [^3H]GDP remaining bound to the GTPases was then measured by filtering the quenched reaction samples over nitrocellulose membranes followed by scintillation counting of the membrane-bound radioactivity. The percentage of [^3H]GDP remaining bound at each time point was evaluated relative to the amount of radioactivity remaining at time 0 of the respective reaction, which was set to 100% in each experiment. The results shown are representative of at least three independent assays. D, regulation of IBP GEF activity by Lck and PI(3,4,5)P3. [^3H]GDP-loaded Rac1 was incubated with Lck-phosphorylated wild-type HA-IBP (IBP+Lck) in the presence or absence of PI(3,4,5)P3 (1 μM) for 0 or 40 min. […] The exchange reactions were then stopped, and the amount of [^3H]GDP remaining bound to Rac1 was measured by filter-binding method as described for A-C. The percentage of [^3H]GDP remaining bound after incubation for 40 min was evaluated relative to the amount of radioactivity remaining at time 0 of the respective reaction, which was set to 100% in each experiment. […]

Molecule	dissociation of [3H]GDP from Rac1 (GEF activity) (Rac1)	dissociation of [3H]GDP from Cdc42 (GEF activity) (Cdc42)	ability of wild-type IBP to promote GDP-GTP exchange on Rac1 after phosphorylation by Lck (Rac1; purified HA-IBP phosphorylated in vitro by purified Lck, 40 min)	GEF activity of Lck-phosphorylated wild-type IBP on Rac1 on addition of PI(3,4,5)P3 (Rac1; PI(3,4,5)P3 1 μM, 40 min)
wild-type IBP: purified recombinant full-length human IBP (IRF-4 Binding Protein), GST fusion or HA-tagged	did not stimulate the dissociation	did not stimulate the dissociation		
Lck: purified Lck kinase, Src family protein tyrosine kinase, used to phosphorylate IBP in vitro			enhanced ability	
phosphatidylinositol 3,4,5-triphosphate [PI(3,4,5)P3, reference compound]				stimulated
IBP 313-631: IBP mutant containing the putative DH domain alone, GST fusion protein (protein, UniProt Q9H4E7 313-631, looked up, fragment, GST fusion, IBP mutant containing the putative DH domain alone, GST fusion protein) LQAEGKTSLHKDLKQKRREQREQRERRRAAKEEELLRLQQLQEEKERKLQELELLQEAQRQAERLLQEEEERRRSQHRELQQALEGQLREAEQARASMQAEMELKEEEAARQRQRIKELEEMQQRLQEALQLEVKARRDEESVRIAQTRLLEEEEEKLKQLMQLKEEQERYIERAQQEKEELQQEMAQQSRSLQQAQQQLEEVRQNRQRADEDVEAAQRKLRQASTNVKHWNVQMNRLMHPIEPGDKRPVTSSSFSGFQPPLLAHRDSSLKRLTRWGSQGNRTPSPNSNEQQKSLNGGDEAPAPASTPQEDKLDPAPEN	stimulated rapid GDP dissociation	stimulated rapid GDP dissociation		
